Test results published in patent publication US20090011497 (published 2009).

Molecular target: T1, hu-MPL (human, UniProt P40238)
T1 chain: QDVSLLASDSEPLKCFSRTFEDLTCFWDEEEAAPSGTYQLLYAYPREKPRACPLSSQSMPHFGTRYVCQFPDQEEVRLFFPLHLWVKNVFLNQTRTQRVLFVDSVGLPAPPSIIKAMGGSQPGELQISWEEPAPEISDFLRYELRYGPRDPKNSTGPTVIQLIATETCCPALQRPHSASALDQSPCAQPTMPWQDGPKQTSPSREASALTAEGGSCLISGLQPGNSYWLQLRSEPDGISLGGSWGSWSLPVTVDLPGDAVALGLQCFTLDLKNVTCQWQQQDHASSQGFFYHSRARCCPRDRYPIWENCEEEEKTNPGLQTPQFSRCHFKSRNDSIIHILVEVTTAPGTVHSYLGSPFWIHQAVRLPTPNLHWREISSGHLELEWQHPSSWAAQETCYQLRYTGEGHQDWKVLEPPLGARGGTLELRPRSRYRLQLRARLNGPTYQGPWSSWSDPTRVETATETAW
Experiment: SPR

YCDEGPTLKQWLVCLGLQ [TMP20]
Kd: 0.56 nM
